From PMC9930899, “New Insights into rice pyrimidine catabolic enzymes” (Frontiers in Plant Science, 2023)

Legend:
Format in all cases: biochemical, Oryza sativa
purified protein [1] = substrate: NC(=O)NCCC(=O)O; test: purified protein; details: 25°C
purified protein [2] = substrate: CC(CNC(N)=O)C(=O)O; test: purified protein; details: 25°C
[3] = substrate: O=C1C[C@@H](C(=O)O)NC(=O)N1; test: steady-state DHODH activity, Michaelis-Menten fit; details: co-substrate decylubiquinone, 30°C
Text: (§1) steady-state DHODH activity, Michaelis-Menten fit on OsDHODH

[4] = substrate: CCCCCCCCCCC1=C(C)C(=O)C(OC)=C(OC)C1=O; test: steady-state DHODH activity, Michaelis-Menten fit; details: co-substrate L-dihydroorotate, 30°C
Text: as §1

purified protein [5] = substrate: O=C1CCNC(=O)N1; test: purified protein; details: 0.1 M potassium buffer, pH 8, 1 mg/mL BSA, 37°C

B1: Osß-UP (Oryza sativa Japonica Group) (protein)
chain: MDSSNGERPPQGEDAPAAAAGSIGGYESLHRLLQSNLSPELFKEASRLLLGLNCGRALEAISLPEATSALAKAHNFDVQAFRFDADKEYLRQPRVIRVGLIQNSIAIPTTSHFADQKKAIMEKVKPMIDAAGDAGVNILCLQEAWTMPFAFCTREKRWCEFAEPVDGESTQFLQQLAKKYNMVIVSPILERDVNHGEIVWNTAVVIGNHGNIIGIHRKNHIPRVGDFNESTYYMEGNTGHPVFETAYGKIGVNICYGRHHPLNWLAFGLNGAEIVFNPSATVGELSEPMWPIEARNAAIANSYFVGSINRVGTEVFPNPFTSGDGKPQHADFGHFYGSSHFSAPDASCTPSLSRYRDGLMISDMDLNLCRQIKDKWGFRMTARYDTYASLLSEYLKPDFKPQVIVDPLINKSA
notes: full length, 413 residues (45,713 Da), N-terminal His-tag, pET15b, E. coli
B1 was tested, and the Km (purified protein [1]) was 140 ± 10 µM, the kcat (purified protein [1]) was 2.54 ± 0.07 s⁻¹ and the kcat/Km (purified protein [1]) was 18100 M⁻¹ s⁻¹. The Km (purified protein [2]) was 160 ± 20 µM, the kcat (purified protein [2]) was 1.36 ± 0.07 s⁻¹ and the kcat/Km (purified protein [2]) was 8500 M⁻¹ s⁻¹.

B2: OsDHODH (Oryza sativa Japonica Group) (protein)
chain: DEAKFCGWLFKSTQLVNPLFALLDAEFAHRLAVTAASHGFVPREKRPDPSVLGLEIWGRKFTNPIGLAAGFDKNAEAVEGLLGMGFGFVEVGSVTPLPQEGNPKPRIFRLREHGAVINRCGFNSEGIVVVAKRLGAQHGKRKMEETSSSTSPTTSDVKQGGKAGPGILGVNLGKNKISEDATADYVQGVHTLSQYADYLVINVSSPNTPGLRKLQGRKQLKDLVKKVQAARDEMQWAEDGPPPLLVKIAPDLSKQDLEDIAAVALALRLDGLIISNTTISRPSPADTHPLAQEAGGLSGKPLFDLSTNVLREMYILTRGKIPLIGCGGVSSGEDAYKKIRSGATLVQLYTAFAYGGPALIPRIKAELAECLERDGFKSVQEAVGADFK
notes: N-terminally truncated, starts at residue 82 (DEAK); N-terminal His-tag, pET15b, E. coli; full length 469 residues
B2 was tested, and the Km [3] was 29.7 ± 3.5 µM and the Km [4] was 4.56 ± 0.67 µM.

B3: OsDHP-T1 (Oryza sativa Japonica Group) (protein)
chain: EFCAAVGGGSGGCGVGGGGGGDGRRILIRGGTVVNAHRVEEADVYVEDGVIVAVRPNIPVGDDHVKVIDATGKYVMPGGIDPHTHLEMEFMGTVTIDDFFSGHAAALAGGTTMHIDFVIPVNGNLTAGLESYKQKAEKSAMDYGFHMAITKWNDDVSREMETMVKEHGINSFKFFMAYKGSLMVTDDLLLQGLQKCKSLGALAMVHAENGDAVAEGQQRMIDLGITGPEGHALSRPPVLEGEATARAIRLAKFVNTPLYVVHVMSIDAMDEIAKAKREGQRVIGEPVVSGLVLDDSWLWDPDFMIASKYVMSPPIREAGHNKALQVALSSGILQLVGTDHCTFNSTQKAFGSDDFRKIPNGVNGIEERMHIIWDSMVETGRISVSDYVRVTSTECAKIFNIYPRKGAILEGSDADIIILNPERSFVMGAHTHHSRSNTNVYEGRKGKGMVEVTISRGRVVWEDGILNVVPGSGRYVRTPPYSYLFDGIEKSDAAYRASLRAPVKRGKAAA
notes: N-terminal His-tag, pET19b, E. coli; full length 539 residues, 57,989 Da
Work on B3 yielded a Km (purified protein [5]) of 300 ± 40 µM, a kcat (purified protein [5]) of 1.07 ± 0.04 s⁻¹ and a kcat/Km (purified protein [5]) of 3550 M⁻¹ s⁻¹.
